Substrate: CC#CC(=O)C(=O)O
Assay: purified protein
Type: biochemical, Corynebacterium glutamicum
Details: hydration of 2-oxo-3-pentynoate; typical value of the enzyme preparations used

B1: Cg10062 (Corynebacterium glutamicum ATCC 13032) (protein)
chain: PTYTCWSQRIRISREAKQRIAEAITDAHHELAHAPKYLVQVIFNEVEPDSYFIAAQSASENHIWVQATIRSGRTEKQKEELLLRLTQEIALILGIPNEEVWVYITEIPGSNMTEYGRLLMEPGEEEKWFNSLPEGLRERLTELEGSSE
Km: 4.2 ± 0.3 mM
kcat: 0.16 ± 0.01 s⁻¹
